# Test results reported in patent US20200339636A1 (CHILDREN S MEDICAL CENTER, published 2020).
# B1: TcdB fragment 1430-1804 (other)
# chain: SGELKILMLNSNHIQQKIDYIGFNSELQKNIPYSFVDSEGKENGFINGSTKEGLFVSELPDVVLISKVYMDDSKPSFGYYSNNLKDVKVITKDNVNILTGYYLKDDIKISLSLTLQDEKTIKLNSVHLDESGVAEILKFMNRKGNTNTSDSLMSFLESMNIKSIFVNFLQSNIKFILDANFIISGTTSIGQFEFICDENDNIQPYFIKFNTLETNYTLYVGNRQNMIVEPNYDLDDSGDISSTVINFSQKYLYGIDSCVNKVVISPNIYTDEINITPVYETNNTYPEVIVLDANYINEKINVNINDLSIRYVWSNDGNDFILMSTSEENKVSQVKIRFVNVFKDKTLANKLSFNFSDKQDVPVSEIILSFTPSYY
# B2: TcdB fragment 1510-1688 (other)
# chain: SNNLKDVKVITKDNVNILTGYYLKDDIKISLSLTLQDEKTIKLNSVHLDESGVAEILKFMNRKGNTNTSDSLMSFLESMNIKSIFVNFLQSNIKFILDANFIISGTTSIGQFEFICDENDNIQPYFIKFNTLETNYTLYVGNRQNMIVEPNYDLDDSGDISSTVINFSQKYLYGIDSCV
# B3: sTcdB (TcdB residues 1285-1804), wild type, with C-terminal HA tag (other)
# chain: TNIRINLDSNTRSFIVPIITTEYIREKLSYSFYGSGGTYALSLSQYNMGINIELSESDVWIIDVDNVVRDVTIESDKIKKGDLIEGILSTLSIEENKIILNSHEINFSGEVNGSNGFVSLTFSILEGINAIIEVDLLSKSYKLLISGELKILMLNSNHIQQKIDYIGFNSELQKNIPYSFVDSEGKENGFINGSTKEGLFVSELPDVVLISKVYMDDSKPSFGYYSNNLKDVKVITKDNVNILTGYYLKDDIKISLSLTLQDEKTIKLNSVHLDESGVAEILKFMNRKGNTNTSDSLMSFLESMNIKSIFVNFLQSNIKFILDANFIISGTTSIGQFEFICDENDNIQPYFIKFNTLETNYTLYVGNRQNMIVEPNYDLDDSGDISSTVINFSQKYLYGIDSCVNKVVISPNIYTDEINITPVYETNNTYPEVIVLDANYINEKINVNINDLSIRYVWSNDGNDFILMSTSEENKVSQVKIRFVNVFKDKTLANKLSFNFSDKQDVPVSEIILSFTPSYY
# B4: TcdB fragment 1510-1804 (other)
# chain: SNNLKDVKVITKDNVNILTGYYLKDDIKISLSLTLQDEKTIKLNSVHLDESGVAEILKFMNRKGNTNTSDSLMSFLESMNIKSIFVNFLQSNIKFILDANFIISGTTSIGQFEFICDENDNIQPYFIKFNTLETNYTLYVGNRQNMIVEPNYDLDDSGDISSTVINFSQKYLYGIDSCVNKVVISPNIYTDEINITPVYETNNTYPEVIVLDANYINEKINVNINDLSIRYVWSNDGNDFILMSTSEENKVSQVKIRFVNVFKDKTLANKLSFNFSDKQDVPVSEIILSFTPSYY
# B5: FZD5^CRD-Fc (recombinant human, Sino Biologics) (Fc fusion, UniProt Q13467 27-167, looked up)
# chain: ASKAPVCQEITVPMCRGIGYNLTHMPNQFNHDTQDEAGLEVHQFWPLVEIQCSPDLRFFLCSMYTPICLPDYHKPLPPCRSVCERAKAGCSPLMRQYGFAWPERMSCDRLPVLGRDAEVLCMDYNRSEATTAPPRPFPAKP
# notes: domain: CRD; also called CRD5; CRD5-Fc; not shown: Fc tag of the bought protein
# B6: FZD8^CRD-Fc (recombinant human, R&D Systems) (Fc fusion)
# chain: ASAKELACQEITVPLCKGIGYNYTYMPNQFNHDTQDEAGLEVHQFWPLVEIQCSPDLKFFLCSMYTPICLEDYKKPLPPCRSVCERAKAGCAPLMRQYGFAWPDRMRCDRLPEQGNPDTLCMDYNRTDLTT
# notes: domain: CRD
# B7: TcdB fragment 1071-1512 (other)
# chain: LTTATTAIITSSLGIASGFSILLVPLAGISAGIPSLVNNELVLRDKATKVVDYFKHVSLVETEGVFTLLDDKIMMPQDDLVISEIDFNNNSIVLGKCEIWRMEGGSGHTVTDDIDHFFSAPSITYREPHLSIYDVLEVQKEELDLSKDLMVLPNAPNRVFAWETGWTPGLRSLENDGTKLLDRIRDNYEGEFYWRYFAFIADALITTLKPRYEDTNIRINLDSNTRSFIVPIITTEYIREKLSYSFYGSGGTYALSLSQYNMGINIELSESDVWIIDVDNVVRDVTIESDKIKKGDLIEGILSTLSIEENKIILNSHEINFSGEVNGSNGFVSLTFSILEGINAIIEVDLLSKSYKLLISGELKILMLNSNHIQQKIDYIGFNSELQKNIPYSFVDSEGKENGFINGSTKEGLFVSELPDVVLISKVYMDDSKPSFGYYSNN
# B8: TcdB fragment 1454-1804 (other)
# chain: SELQKNIPYSFVDSEGKENGFINGSTKEGLFVSELPDVVLISKVYMDDSKPSFGYYSNNLKDVKVITKDNVNILTGYYLKDDIKISLSLTLQDEKTIKLNSVHLDESGVAEILKFMNRKGNTNTSDSLMSFLESMNIKSIFVNFLQSNIKFILDANFIISGTTSIGQFEFICDENDNIQPYFIKFNTLETNYTLYVGNRQNMIVEPNYDLDDSGDISSTVINFSQKYLYGIDSCVNKVVISPNIYTDEINITPVYETNNTYPEVIVLDANYINEKINVNINDLSIRYVWSNDGNDFILMSTSEENKVSQVKIRFVNVFKDKTLANKLSFNFSDKQDVPVSEIILSFTPSYY
# B9: Wnt3A (recombinant human, StemRD) (ligand)
# chain: SYPIWWSLAVGPQYSSLGSQPILCASIPGLVPKQLRFCRNYVEIMPSVAEGIKIGIQECQHQFRGRRWNCTTVHDSLAIFGPVLDKATRESAFVHAIASAGVAFAVTRSCAEGTAAICGCSSRHQGSPGKGWKWGGCSEDIEFGGMVSREFADARENRPDARSAMNRHNNEAGRQAIASHMHLKCKCHGLSGSCEVKTCWWSQPDFRAIGDFLKDKYDSASEMVVEKHRESRGWVETLRPRYTYFKVPTERDLVYYEASPNFCEPNPETGSFGTRDRTCNVSSHGIDGCDLLCCGRGHNARAERRREKCRCVFHWCCYVSCQECTRVYDVHTCK
# B10: TcdB fragment 1688-1835 (other)
# chain: VNKVVISPNIYTDEINITPVYETNNTYPEVIVLDANYINEKINVNINDLSIRYVWSNDGNDFILMSTSEENKVSQVKIRFVNVFKDKTLANKLSFNFSDKQDVPVSEIILSFTPSYYEDGLIGYDLGLVSLYNEKFYINNFGMMVSGL
# B11: FZD4^CRD-Fc (recombinant human, Sino Biologics) (Fc fusion)
# chain: FGDEEERRCDPIRISMCQNLGYNVTKMPNLVGHELQTDAELQLTTFTPLIQYGCSSQLQFFLCSVYVPMCTEKINIPIGPCGGMCLSVKRRCEPVLKEFGFAWPESLNCSKFPPQNDHNHMCMEGPGDEEVPLPHKTPIQPGEE
# notes: domain: CRD
# Tests used:
# [1] = target: T1, His-tagged CRD2 (CRD of human Frizzled 2, residues 24-156) (human, UniProt Q14332 24-156); experiment: pull down by His-CRD2
# T1 construct: range 24-156
# [2] = target: T2, FZD2^CRD-Fc (recombinant human, R&D Systems) (human, UniProt Q14332 24-162); experiment: BLI, FZD2 CRD-Fc on anti-hIgG-Fc biosensor
# T2 construct: domain: CRD; also called Fc-tagged CRD2; CRD2; not shown: Fc tag of the bought protein
# [3] = target: T2, FZD2^CRD-Fc (recombinant human, R&D …); experiment: BLI (Blitz), FZD2CRD-Fc on anti-hIgG-Fc biosensor; kon error printed 1.69 x 10^3
# [4] = target: T2, FZD2^CRD-Fc (recombinant human, R&D …)
# [5] = target: T2, FZD2^CRD-Fc (recombinant human, R&D …); experiment: BLI (Blitz), FZD2CRD-Fc on anti-hIgG-Fc biosensor
# [6] = target: B3; experiment: pull-down on Protein G beads and BLI, FZD5 CRD-Fc with or without PAM or Wnt3A
# [7] = target: Recombinant full length TcdB (C. difficile strain VPI 10463), 6xHis-tagged (Clostridium difficile strain VPI 10463, UniProt P18177 1-2366); experiment: BLI, FZD5 CRD-Fc with or without Wnt3A
# [8] = target: B3; experiment: BLI, CRD-Fc with or without Wnt3A
# [9] = target: T2, FZD2^CRD-Fc (recombinant human, R&D …); experiment: BLI, FZD2CRD-Fc (20 µg/ml) on anti-hIgG-Fc biosensor, then 20 µg/ml Wnt3A
# Sequence of Recombinant full length TcdB (C. difficile strain VPI 10463), 6xHis-tagged (P18177 whole entry): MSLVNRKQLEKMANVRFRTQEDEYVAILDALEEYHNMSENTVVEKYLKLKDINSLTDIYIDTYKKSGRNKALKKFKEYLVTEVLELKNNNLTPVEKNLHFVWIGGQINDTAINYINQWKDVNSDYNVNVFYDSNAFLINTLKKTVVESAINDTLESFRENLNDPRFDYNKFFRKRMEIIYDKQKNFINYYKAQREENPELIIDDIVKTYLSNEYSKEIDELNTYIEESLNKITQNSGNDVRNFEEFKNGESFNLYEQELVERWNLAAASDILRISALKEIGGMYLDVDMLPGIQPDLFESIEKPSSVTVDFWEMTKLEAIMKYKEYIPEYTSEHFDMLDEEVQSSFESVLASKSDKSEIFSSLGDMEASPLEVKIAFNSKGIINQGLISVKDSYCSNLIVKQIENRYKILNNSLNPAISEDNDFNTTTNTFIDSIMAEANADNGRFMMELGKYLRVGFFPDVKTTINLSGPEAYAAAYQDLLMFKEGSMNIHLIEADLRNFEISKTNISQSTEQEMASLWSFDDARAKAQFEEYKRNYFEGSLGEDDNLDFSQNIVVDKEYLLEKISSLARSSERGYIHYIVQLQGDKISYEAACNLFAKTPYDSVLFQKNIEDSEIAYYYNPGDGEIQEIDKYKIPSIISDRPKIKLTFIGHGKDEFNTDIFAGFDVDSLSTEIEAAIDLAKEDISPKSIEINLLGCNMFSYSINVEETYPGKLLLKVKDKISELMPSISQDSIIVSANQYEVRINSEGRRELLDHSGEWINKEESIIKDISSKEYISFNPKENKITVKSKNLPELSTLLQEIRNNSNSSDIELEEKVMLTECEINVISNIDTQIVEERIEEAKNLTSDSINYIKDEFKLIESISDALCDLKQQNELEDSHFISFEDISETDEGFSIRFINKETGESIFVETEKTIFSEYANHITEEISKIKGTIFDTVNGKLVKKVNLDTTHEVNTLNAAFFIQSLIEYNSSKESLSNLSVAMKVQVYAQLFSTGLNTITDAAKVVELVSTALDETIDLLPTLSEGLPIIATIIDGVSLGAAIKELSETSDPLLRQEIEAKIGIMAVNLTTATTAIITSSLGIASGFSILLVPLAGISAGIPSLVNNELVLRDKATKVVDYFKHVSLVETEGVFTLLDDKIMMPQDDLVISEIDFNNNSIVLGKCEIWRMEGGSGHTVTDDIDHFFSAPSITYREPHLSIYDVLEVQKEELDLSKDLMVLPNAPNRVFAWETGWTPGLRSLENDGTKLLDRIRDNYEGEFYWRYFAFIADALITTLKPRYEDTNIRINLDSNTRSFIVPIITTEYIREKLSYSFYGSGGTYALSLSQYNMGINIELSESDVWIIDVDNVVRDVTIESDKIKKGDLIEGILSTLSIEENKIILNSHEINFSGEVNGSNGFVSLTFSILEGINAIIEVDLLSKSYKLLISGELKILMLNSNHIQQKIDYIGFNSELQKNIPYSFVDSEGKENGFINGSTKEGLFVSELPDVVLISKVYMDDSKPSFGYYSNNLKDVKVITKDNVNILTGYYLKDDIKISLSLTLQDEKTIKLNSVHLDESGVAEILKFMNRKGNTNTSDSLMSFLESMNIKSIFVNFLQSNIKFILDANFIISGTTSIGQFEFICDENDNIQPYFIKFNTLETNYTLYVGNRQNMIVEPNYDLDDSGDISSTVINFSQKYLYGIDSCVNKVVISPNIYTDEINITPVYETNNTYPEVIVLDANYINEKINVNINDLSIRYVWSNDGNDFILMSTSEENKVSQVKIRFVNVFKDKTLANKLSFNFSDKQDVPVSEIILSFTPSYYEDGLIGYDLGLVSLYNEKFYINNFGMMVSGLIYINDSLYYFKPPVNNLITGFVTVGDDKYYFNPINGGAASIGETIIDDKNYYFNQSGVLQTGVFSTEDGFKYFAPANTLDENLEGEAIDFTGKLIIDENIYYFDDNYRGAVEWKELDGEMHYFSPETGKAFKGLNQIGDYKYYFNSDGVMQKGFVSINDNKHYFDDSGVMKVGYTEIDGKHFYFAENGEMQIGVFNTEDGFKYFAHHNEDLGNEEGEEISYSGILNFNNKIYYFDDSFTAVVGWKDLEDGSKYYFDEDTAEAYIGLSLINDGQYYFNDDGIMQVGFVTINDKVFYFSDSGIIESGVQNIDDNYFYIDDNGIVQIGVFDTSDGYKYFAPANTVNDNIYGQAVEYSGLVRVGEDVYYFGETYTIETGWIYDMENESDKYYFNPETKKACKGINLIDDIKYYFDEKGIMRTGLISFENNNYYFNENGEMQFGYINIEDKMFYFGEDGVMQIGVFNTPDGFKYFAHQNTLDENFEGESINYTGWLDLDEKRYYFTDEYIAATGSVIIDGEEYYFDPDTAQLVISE
binder,measurement,setting,value
B1,binding result,[1],no binding
B2,binding result,[1],no binding
B3,Kd,[2],~13 nM
same,kon,[3],114000 M⁻¹ s⁻¹
same,koff,[4],0.0015 s⁻¹
same,Kd,[5],13 nM
B4,binding result,[1],no binding
B5,binding result,[6],binds
same,binding result,[7],binds
B6,binding result,[8],binds
B7,binding result,[1],no binding
B8,binding result,[1],no binding
B9,binding result,[9],binds
B10,binding result,[1],no binding
B11,binding result,[8],binds
